From the supplement of paper PMC9170038

Experiments:
MS2 coat protein [1] = assay: apparent KD of MS2 coat protein, switch OFF state (with FMN for OFF switches, without FMN for ON switches); designed switch direction (-1 OFF switch, 1 ON switch): -1; higher = weaker reporter binding; settings: FMN input: 0 or 200 uM; Eterna round: R93 (includes R88 designs)
Method in brief: (§1)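 Binding of SNAP-549-labelled MS2 coat protein was measured on designed RNA switches transcribed on-chip from Illumina sequencing clusters. The protein rose in twofold steps from 0.7 or 1.5 nM to 3 µM, with 0.8–1.5 h per step early on and 10–20 min per step later, in 100 mM Tris-HCl pH 7.5, 80 mM KCl, 4 mM MgCl2, without or with constant ligand. Each design's apparent KD is the median of fits to its normalised cluster binding curves.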

MS2 coat protein [2] = assay: apparent KD of MS2 coat protein, switch ON state; designed switch direction (-1 OFF switch, 1 ON switch): -1; higher = weaker reporter binding; settings: FMN input: 0 or 200 uM; Eterna round: R93 (includes R88 designs)
Method in brief: as §1

Sequence	apparent KD of MS2 coat protein (MS2 coat protein [1]) [nM]	apparent KD of MS2 coat protein (MS2 coat protein [2]) [nM]
CUUAUGUAAGGAUAUCAGUAGUAAAAAAAUAAAAUUACUACUGAGAAGGUACAUGAGGAUCACCCAUGUCCGGG [EX4 375: Super Stable 75]	24.7	74.3
AGUUGGCGAGGAUAUACAUGAGGAUCACCCAUGUGAAAUAAUGAAAAAGUAGGGAAAAGUAGAAGGCGCUGACA [73%, Moding Norbert Elias, 20]	143	37.7
AGGAAACAUGAGGAUCACCCAUGUCAGGAUAUUGGAAAGAAAAGAAAAGAAAGAAGAAUAAGAAGGGACAAGAA [Hor-Aha]	25.1	38.7
AACAAGUCAGGAUAUACAAAAAGUAAAUAAGUAAAACAAAAGUAGAAGGGACAUGAGGAUCACCCAUGUAAAUA [JR_Exc004_Sub018]	26.7	46.8
AGUUGGCGAGGAUAUACAUGAGGAUCACCCAUGUGAGAGAAAAAAGUGAGAAAGAAAAGUAGAAGGCGCGGACA [Ruby 1]	70.4	47.3
UUAAAACAUGAGGAUCACCCAUGUGAGGAUAUGCAAUACUAAUAUUAAAAUAAUUAUAGCAGAAGGCACAUAGU [JR_EXc001_Sub802]	60.4	28.4
AAAACGGUAGGAUAUACAAUUGGGAACUAGACCGAAAAAAAACAUGAGGAUCACCCAUGUAGAAGGGCCAAAAA [Ex2 Malc#11]	91.2	47.8
AAAGUGUGAGGAUAUGUGAAAGGACACGAAAGUGACAAAGAACAGAAGGUACAUGAGGAUCACCCAUGUAAAAA [milkweed 20]	23.5	27.4
CUCUUGUCAGGAUAUAGAAGAAAAGAAAAGAAAGAAAAGAACUAGAAGGGACAUGAGGAUCACCCAUGUAAGAA [EteRNA is fun!]	62.9	87.5
GAAAAACAUGAGGAUCACCCAUGUAAGGAUAUGCGAAAAUAAAAUAAAAUAAAAUAAAGCAGAAGGUACAAAAA [Mat - Exclusion 1 - Eli mod - D1]	40.5	29.5
AAAACGGCAGGAUAUACAAUUGAGAACUAGAUCGAAAAAAAACAUGAGGAUCACCCAUGUAGAAGGGCCAAAAA [Ex2 Malc#9]	55.3	34.7
AACAGGUCAGGAUAUGUGCAACAGAAAAGAGCAGAAUAAGCACAGAAGGGACAUGAGGAUCACCCAUGUUAACA [May 27]	32.2	24.6
AGUCAUACAGGAUAUACAUGAGGAUCACCCAUGUUUAUCCUAAAAUAAAAAAACUCAUGUAGAAGGGUAUGACA [EX3 214: Super Stable 14]	31.3	13
AACAAGUAAGGAUAUGCUGCUCGUCACAAAAGUGAUGAGUAGCAGAAGGUACAUGAGGAUCACCCAUGUAAAGA [JL eternac mod 16]	21.1	28
AUAGUACAUGAGGAUCACCCAUGUCAGGAUAUUGGAUAUGAAAAAAAAAAAAAGUUAACGAGAAGGGACUAUAA [EX1 Malc#14]	33.6	28.5
AAAAAACAUGAGGAUCACCCAUGUGAGGAUAUACAAAACCCAUAUAAAAAGGGAAAAAGUAGAAGGCACAAAAA [wbt round 1 mod 11]	33.9	27.5
AAAAAGAUAGGAUAUACGAACAUGUCGAAAGACGUGAAGGGACAUGAGGAUCACCCAUGUAGAAGGGUUAAAAA [Mat - Exclusion 2 - JL mod - D88]	50	149
UUUAUGUGAGGAUAUGUACAGAAAAAAAAGGGUGUAACUGUACAGAAGGCACAUGAGGAUCACCCAUGUGCAUU [EX4 382: S S Pseudoknot 7]	21.8	27.9
AAGAGGCUAGGAUAUACACAUCUGAUGACUCAACCUAAAACACAUGAGGAUCACCCAUGUAGAAGGAGCGAAAG [Qucequor]	17	20.2
ACAGCGUGAGGAUAUACAUGAGGAUCACCCAUGUGAAACAGGAAAAACUGAAAGACAUGUAGAAGGCACGCUGA [Exclusion 3.3 (Janderson's 'Tweaking Eli' some more )]	28.7	263
AAAACUGGAGGAUAUACGAACAUGUCGAAAGACGUGAAGGGACAUGAGGAUCACCCAUGUAGAAGGCUAGAAAA [Mat - Exclusion 2 - JL mod - D72]	58.4	42.5
AACAGUACAGGAUAUACAUGAGGAUCACCCAUGUAGAGAGAAUAAAACAAAAAUAAAUGUAGAAGGGUACUGGA [Moding Maslow revisited (73) 23]	26.1	25.6
AACAGUACAGGAUAUACAUGAGGAUCACCCAUGUGAGAAUUAAAAGGCGUACCUAAAAGUAGAAGGGUACUGGA [JL Maslow Revisted mod 18]	73.2	28.3

Sequence	apparent KD of MS2 coat protein (MS2 coat protein [1]) [nM]	apparent KD of MS2 coat protein (MS2 coat protein [2]) [nM]
AAGAAACGAGGAUAUACAAGAAAGAAAGAAAAGAAAAGAAAACAUGAGGAUCACCCAUGUAGAAGGCGUUAGAA [EteRNA is fun!]	13.8	22
AUAAAGUGAGGAUAUCGAAGACUGUCGAAAAGACAGUCGAACGAGAAGGCACAUGAGGAUCACCCAUGUGAGGG [Mat - Exaclusion 4 - Eli mod - D68]	122	79.7
AGAAAACAUGAGGAUCACCCAUGUGAGGAUAUCGAUGUCCAAAAAAAAGUGCGGGACUCGAGAAGGCACUUGGA [Erbelaed]	32.5	46.6
AACAGUACAGGAUAUACAUGAGGAUCACCCAUGUCACACAAAUAAAACAAAAAUAAAAGUAGAAGGGUACUGGA [Ruby 40]	25.9	24.9
GAGAGACAUGAGGAUCACCCAUGUGAGGAUAUCGGGAGGAGGAGGAGGAGGAGGAGGACGAGAAGGCACGGAAG [salish99-Ex1-06]	35.3	21.6
ACAAAUGUAGGAUAUACAUGAGGAUCACCCAUGUGGCACAAACAGCAAACAAGACAAAGUAGAAGGACAACGAC [JR_Exc003-Sub901]	28.4	24.9
AAAAACCUAGGAUAUACAUGAGGAUCACCCAUGUAAAAAAAAAAAAAGGGAAAAAAAAGUAGAAGGAGGAAAAA [Sekhemre Wadjkhaw Sobekemsaf I]	24.9	20.6
AACUGACAUGAGGAUCACCCAUGUCAGGAUAUGCUUCAUAAAAAAAAAAAAAAAUGAUGCAGAAGGGAUAUGGG [Design 33 :P Sub-opt 9]	34.3	18
AACAUGUAAGGAUAUCCAAGAAAAGAAAAGAAAGAAAAGAAGGAGAAGGUACAUGAGGAUCACCCAUGUAAGAA [EteRNA is fun!]	18.9	21.6
AAAAAAGGAGGAUAUACAUGAGGAUCACCCAUGUAAAAAGGGAAAAAAAAAAAAAAAAGUAGAAGGCCUAAAAA [JR_Exc003_Sub1701]	65.1	41.7
AUAAUGCGAGGAUAUACAUGAGGAUCACCCAUGUAAAUCAAUAGGAGAGCCACAUUAAGUAGAAGGUGCAUUAA [JR_Exc003_Sub502]	49.1	20.4
AACUGACAUGAGGAUCACCCAUGUCAGGAUAUGACUUCGAAAAAAAAAAAAAACGAUGUCAGAAGGGACAUGGG [Design 69: Sub-opt OB]	22.3	17.6
GGAAAACAUGAGGAUCACCCAUGUGAGGAUAUUGAAACAAACAAAACAAACAAACAAACAAGAAGGCACAGGAA [Exclusion one redone]	20.1	20.7
ACUAAACGAGGAUAUACUGACAAACCUCAAACAUACAUCAAACAUGAGGAUCACCCAUGUAGAAGGCGUAAACU [JR_Exc002_Sub401]	19.6	37.6
AAGAAGUGAGGAUAUACAAAAUAAAAGAAAAGAAAGAAAGAACAUGAGGAUCACCCAUGUAGAAGGUACAAGAA [Khakheperre Senusret II]	22	29
AAGAAGUGAGGAUAUACGCGAACAAAAAAAAAAAAGAAAGCGUAGAAGGCACAUGAGGAUCACCCAUGUCAAAA [Alfred Victor Espinas]	28.3	30.1
CUCUUGUAAGGAUAUUAAUGAAAUGAAGUGAAAGAAAAGAAUAAGAAGGUACAUGAGGAUCACCCAUGUUAGAA [EteRNA is fun!]	27	28.9
AAGAACUGAGGAUAUACAUAAUAAAAGAAAAGAAAGAAAGAACAUGAGGAUCACCCAUGUAGAAGGCGGAAGAA [Khaneferre Sobekhotep IV]	24.5	32.7
GGAUGGGAAGGAUAUACAUGAGGAUCACCCAUGUGAGAGAAAAAAGUGAGAAAGAAAAGUAGAAGGUCUUGUCG [salish99-ex3-85]	99.1	82.5
AAACCACAUGAGGAUCACCCAUGUCAGGAUAUGCUAUGGAAAAUAAAAAUAAAACAUAGCAGAAGGGACAAAAA [Denovo 6]	66	37.2
AAAAAACAUGAGGAUCACCCAUGUGAGGAUAUCUGUAUCCAAAAGGAAGUGUAGGAUCAGAGAAGGCACUAGGA [Power strip]	83.8	40.1
AGCUAGUCAGGAUAUACGAACAUGUCAAAAGACGUGAAAUAACAUGAGGAUCACCCAUGUAGAAGGGACUAGCA [Mat - Exclusion 2 - JL-Eli mod - D52]	15.5	17.4
